From US20230227572A1 (HEFEI TG IMMUNOPHARMA, published 2023)

Legend:
[1] = target: T1, recombinant Macaca fascicularis PVRIG-human IgG1 Fc fusion protein (Macaca fascicularis; human); assay: ELISA, plate coated with Macaca fascicularis PVRIG-human IgG1 Fc at 1.0 µg/ml, HRP goat anti-mouse IgG, OD450
T1 construct: Prepared 'in a similar manner' to the human PVRIG fusion
Experimental: The activity of the murine antibody in binding to the Macaca fascicularis PVRIG was evaluated by an ELISA method. The experimental procedure was as follows:
The recombinant Macaca fascicularis PVRIG-human IgG1 Fc fusion protein was diluted to 1.0 μg/ml in 1×PBS (phosphate buffer), the dilution was placed in a 96-well ELISA plate overnight at 4° C. by 100 μl/well, the plate was washed 3 times with PBST (0.05% Tween20-PBS) and blocked with 1% BSA, and the mixture was incubated for 2 h at 37° C. The plate was washed 3 times with PBST, and the murine antibody (Antibody 4) diluted in multiple ratios were respectively added to set 11 concentrations, and the mixture was incubated at 37° C. for 1 h using mouse IgG1 as a negative control at 100 μl/well. The plate was washed 3 times with PBST, 100 μl of horseradish peroxidase (HRP)-labeled goat anti-mouse IgG antibody (available from BOSTER, 1:10,000 dilution) was added to each well, and the mixture was incubated at 37° C. for 1 h. After washing, 100 μl of TMB substrate solution was added to each well for developing for 10 to 15 min in the dark, 100 μl of stop solution (2M H2SO4) was added to each well, the solution was measured with a microplate reader immediately after the reaction stopped, and the absorbance at 450 nm (OD450) was read. […]

[2] = target: T2, recombinant human PVRIG-human IgG1 Fc fusion protein (human); assay: ELISA, plate coated with human PVRIG-human IgG1 Fc at 1.0 µg/ml, HRP goat anti-mouse IgG, OD450
T2 construct: no linker is told; also called human PVRIG-Fc fusion protein
Experimental: The activity of the murine antibodies from different clones in binding to the human PVRIG-Fc fusion protein was evaluated by ELISA. The experimental procedure was as follows:
The recombinant human PVRIG-human IgG1 Fc fusion protein was diluted to 1.0 μg/ml in 1×PBS (phosphate buffer), the dilution was plated onto a 96-well ELISA plate overnight at 4° C. by 100 μl/well, the plate was washed 3 times with PBST (0.05% Tween20-PBS) and blocked with 1% BSA, followed by incubation at 37° C. for 2 h. The plate was washed 3 times with PBST, and murine antibodies (Antibody 1, Antibody 2, Antibody 3, or Antibody 4) diluted in multiple ratios were respectively added to set 8 concentrations, and the mixture was incubated at 37° C. for 1 h using mouse IgG1 (available from Biolegend) as a negative control at 100 μl/well. The plate was washed 3 times with PBST, and 100 μl of horseradish peroxidase (HRP)-labeled goat anti-mouse IgG antibody (available from BOSTER, 1:10,000 dilution) was added to each well, and the mixture was incubated at 37° C. for 1 h. After washing, 100 μl of TMB substrate solution was added to each well for developing for 10 to 15 min in the dark, 100 μl of stop solution (2M H2SO4) was added to each well, the solution was measured with a microplate reader immediately after the reaction stopped, and the absorbance at 450 nm (OD450) was read.
Target sequence in this assay (chain, as listed by the source limits assumed): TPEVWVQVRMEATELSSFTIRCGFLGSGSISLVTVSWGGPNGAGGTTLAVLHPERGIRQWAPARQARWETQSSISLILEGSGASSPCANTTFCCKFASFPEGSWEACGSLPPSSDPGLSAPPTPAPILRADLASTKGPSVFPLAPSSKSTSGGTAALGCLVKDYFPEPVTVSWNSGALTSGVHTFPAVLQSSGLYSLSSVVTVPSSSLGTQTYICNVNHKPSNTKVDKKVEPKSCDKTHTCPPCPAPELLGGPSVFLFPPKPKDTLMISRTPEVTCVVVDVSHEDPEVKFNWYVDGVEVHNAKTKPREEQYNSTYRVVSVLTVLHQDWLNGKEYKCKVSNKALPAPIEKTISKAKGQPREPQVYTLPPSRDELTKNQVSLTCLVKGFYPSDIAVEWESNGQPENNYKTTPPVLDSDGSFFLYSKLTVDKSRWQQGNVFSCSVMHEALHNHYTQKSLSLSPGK

[3] = target: T2, recombinant human PVRIG-human IgG1 Fc …; assay: SPR (Biacore), human PVRIG-human IgG1 Fc on chip, antibody in flow, 1:1 model
Experimental: The binding kinetics and dissociation equilibrium constant (KD) of the antibodies of the present disclosure to human PVRIG were determined using the surface plasmon resonance (Biacore) assay. Briefly, a CMS chip was coated with human PVRIG-human IgG1 Fc fusion protein, and after being blocked, antibody solutions of different concentrations passed through the CMS chip at a fixed flow rate and bound to antigen for 2 min, followed by transfer to dissociation buffer for 6 min for determination of the dissociation rate. The kinetics were analyzed using a 1:1 binding model.

[4] = target: T2, recombinant human PVRIG-human IgG1 Fc …; assay: flow cytometry blocking assay: antibody plus 10 µg/ml Fc fusion protein on 293T-human CD112 cells, AF647 anti-human IgG-Fc; y axis Human PVRIG-Fc fusion protein binding (%); blocked ligand: human CD112 on the cells
Experimental: The activity of murine antibodies from different clones in blocking the binding of the human PVRIG to its ligand CD112 was evaluated by flow cytometry. The experimental procedure was as follows:
The 293T-human CD112 cell line was harvested, and washed resuspended with 1×PBS to count the cells. […] The cell pellet was resuspended in 100 μl of 1×PBS, a AF647-labeled mouse anti-human IgG-Fc antibody (available from Biolegend) was added, the mixture was incubated at 4° C. for 30 min in the dark, followed by washing twice with 1×PBS and harvesting the cells by centrifugation at 3,500 rpm for 5 min. The cell pellet was resuspended with 200 ul of 1×PBS and measured using a flow cytometer (BD LSR II).

[5] = target: T3, human PVRIG protein on the cell membrane surface (human, UniProt Q6DKI7 41-326); assay: flow cytometry on 293T-human PVRIG cells, AF647 goat anti-mouse IgG, percent positive cells
T3 construct: Also used here for the natural PVRIG on NKG cells and human lymphocytes; also called 293T-human PVRIG cell line; PVRIG on NKG cell line
T3 sequence: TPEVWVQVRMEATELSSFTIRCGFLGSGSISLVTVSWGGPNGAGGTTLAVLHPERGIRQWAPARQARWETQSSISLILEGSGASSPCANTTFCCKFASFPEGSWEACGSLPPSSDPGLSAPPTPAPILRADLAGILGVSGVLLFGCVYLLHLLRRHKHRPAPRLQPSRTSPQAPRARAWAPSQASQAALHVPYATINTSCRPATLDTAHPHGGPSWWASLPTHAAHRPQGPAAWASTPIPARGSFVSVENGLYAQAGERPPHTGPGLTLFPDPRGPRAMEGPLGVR
Experimental: The activity of murine antibodies from different clones in binding to human PVRIG protein on the cell membrane surface was evaluated by flow cytometry. The experimental procedure was as follows:
The 293T-human PVRIG cell line was harvested, washed with 1×PBS and resuspended, the cells were counted. Then […] were placed into each 1.5 ml Ep tube, the respective murine antibody (Antibody 1, Antibody 2, Antibody 3, or Antibody 4) was added at different concentrations, the mixture was incubated at 4° C. for 30 min, then washed with 1×PBS, and centrifuged at 3,500 rpm for 5 min to harvest the cells. The cell pellet was resuspended in 100 μl of 1×PBS, a AF647-labeled goat anti-mouse IgG antibody (available from Biolegend) was added, the mixture was incubated at 4° C. for 30 min in the dark, followed by washing twice with 1×PBS and harvesting the cells by centrifugation at 3,500 rpm for 5 min. The cell pellet was resuspended with 200 μl of 1×PBS and measured using a flow cytometer (BD LSR II).

T1 sequence (chain, as listed by the source limits assumed): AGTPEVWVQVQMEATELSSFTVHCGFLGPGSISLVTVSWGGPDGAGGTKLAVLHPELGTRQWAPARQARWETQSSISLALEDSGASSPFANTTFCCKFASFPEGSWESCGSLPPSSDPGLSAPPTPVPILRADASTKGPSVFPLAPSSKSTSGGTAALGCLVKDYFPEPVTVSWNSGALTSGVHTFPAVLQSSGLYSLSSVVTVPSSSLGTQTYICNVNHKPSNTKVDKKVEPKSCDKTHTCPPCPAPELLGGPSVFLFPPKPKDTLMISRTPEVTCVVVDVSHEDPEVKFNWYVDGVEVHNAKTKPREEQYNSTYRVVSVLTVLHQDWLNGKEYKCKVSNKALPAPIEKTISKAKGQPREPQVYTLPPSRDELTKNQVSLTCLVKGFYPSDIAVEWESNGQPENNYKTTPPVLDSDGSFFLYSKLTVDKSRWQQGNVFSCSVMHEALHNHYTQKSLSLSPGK

EC50 (read off the curve) [1]: ~0.04 µg/mL
EC50 (read off the curve) [2]: ~0.02 µg/mL
Kd [3]: ≤ 4.1 pM
koff [3]: ≤ 1e-06 s⁻¹
kon [3]: 244000 M⁻¹ s⁻¹
IC50 (read off the curve) [4]: ~3 µg/mL
EC50 (read off the curve) [5]: ~0.01 µg/mL
B1: Antibody 4 (antibody, V domains shown)
VH: QVQLQQSGAELVKPGASVKISCKATGYTFSSFSIEWVKQRPGHGLAWIGEILPGSNSTNYNEKFKGKATFTADTSSNTAYMQLSSLTSEDSAVYYCSSYWFAYWGQGTLVTVSA
VL: DIVMTQSPSSLSVSAGEKVTMSCKSSQSLLNSGNQKNYLAWYQQKPGQPPKLLIYGASTRESGVPDRFTGSGSGTDFTLTISSVQAEDLAVYYCQNAHSYPPTFAAGTKLELK
notes: Murine monoclonal antibody from hybridoma ascites; Used AF647-labelled in several flow cytometry assays; also called murine antibody (Antibody 4); murine Antibody 4
